Experimental data taken from the supplement of paper PMC9112550, “Optimization of the antimicrobial peptide Bac7 by deep mutational scanning” (BMC Biology, 2022).

Test system: Escherichia coli TOP10
Assay: shrunken log2 fold change of peptide-encoding DNA abundance (4.5 h post-induction vs induction); higher = less antimicrobial activity (less host growth inhibition)
Details: time post-induction: 4.5 h; library: site-saturation at positions 5, 18, 19, 20
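Note: peptides expressed intracellularly from a pBAD plasmid library in pooled LB shake-flask culture, induced with 0.3% L-arabinose, DNA abundance read by NGS, three biological replicates, DESeq2 with apeglm shrinkage.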

Row | Sequence | shrunken log2 fold change
1 | RRIRLRPPRLPRPRPRPPKQPRP | 0.0446
2 | RRIRPRPPRLPRPRPRPFRHPRP | -0.191
3 | RRIRARPPRLPRPRPRPDFWPRP | 0.289
4 | RRIRNRPPRLPRPRPRPQEHPRP | 0.422
5 | RRIRHRPPRLPRPRPRPMSPPRP | 0.0565
6 | RRIRTRPPRLPRPRPRPWPNPRP | -0.124
7 | RRIRRRPPRLPRPRPRPNVLPRP | -0.185
8 | RRIRLRPPRLPRPRPRPNGNPRP | -0.218
9 | RRIRIRPPRLPRPRPRPLIWPRP | -0.236
10 | RRIRKRPPRLPRPRPRPCYRPRP | -0.0703
11 | RRIRNRPPRLPRPRPRPYQFPRP | -0.225
12 | RRIRERPPRLPRPRPRPHNTPRP | -0.731
13 | RRIRRRPPRLPRPRPRPPHKPRP | 1.77
14 | RRIRERPPRLPRPRPRPDRDPRP | -0.0369
15 | RRIRSRPPRLPRPRPRPPNEPRP | 0.0505
16 | RRIRHRPPRLPRPRPRPEYDPRP | -0.0789
17 | RRIRRRPPRLPRPRPRPPMQPRP | 0.385
18 | RRIRPRPPRLPRPRPRPFLGPRP | -0.0178
19 | RRIRMRPPRLPRPRPRPNRCPRP | 0.172
20 | RRIRERPPRLPRPRPRPNEAPRP | -0.0218
21 | RRIRYRPPRLPRPRPRPRHYPRP | -0.974
22 | RRIRQRPPRLPRPRPRPATPPRP | 0.331

Row | Sequence | shrunken log2 fold change
23 | RRIRHRPPRLPRPRPRPLLCPRP | -0.223
24 | RRIRVRPPRLPRPRPRPQTGPRP | -0.0393
25 | RRIRVRPPRLPRPRPRPMISPRP | -0.237
26 | RRIRGRPPRLPRPRPRPKFGPRP | 0.241
27 | RRIRFRPPRLPRPRPRPFVYPRP | -0.413
28 | RRIRDRPPRLPRPRPRPHAEPRP | 0.0887
29 | RRIRWRPPRLPRPRPRPVEMPRP | 0.206
30 | RRIRARPPRLPRPRPRPMGMPRP | 0.211
31 | RRIRTRPPRLPRPRPRPHPPPRP | 0.271
32 | RRIRHRPPRLPRPRPRPQDIPRP | -0.343
33 | RRIRMRPPRLPRPRPRPTDCPRP | -0.0353
34 | RRIRIRPPRLPRPRPRPESSPRP | -0.0745
35 | RRIRHRPPRLPRPRPRPASFPRP | -0.215
36 | RRIRGRPPRLPRPRPRPKSHPRP | 0.536
37 | RRIRQRPPRLPRPRPRPKWPPRP | 0.166
38 | RRIRQRPPRLPRPRPRPAQWPRP | 0.166
39 | RRIRKRPPRLPRPRPRPDCWPRP | 0.825
40 | RRIRARPPRLPRPRPRPPQSPRP | 0.993
41 | RRIRNRPPRLPRPRPRPNQLPRP | -0.228
42 | RRIRYRPPRLPRPRPRPFIVPRP | -0.173
43 | RRIRFRPPRLPRPRPRPKIRPRP | -0.226
44 | RRIRWRPPRLPRPRPRPDLHPRP | 0.243

Row | Sequence | shrunken log2 fold change
45 | RRIRIRPPRLPRPRPRPVFWPRP | 0.201
46 | RRIRDRPPRLPRPRPRPFDEPRP | 0.0788
47 | RRIRKRPPRLPRPRPRPFKPPRP | 0.0806
48 | RRIRIRPPRLPRPRPRPTWLPRP | -0.124
49 | RRIRTRPPRLPRPRPRPVKGPRP | -0.0154
50 | RRIRGRPPRLPRPRPRPEIPPRP | 0.196
51 | RRIRMRPPRLPRPRPRPFMLPRP | -0.213
52 | RRIRERPPRLPRPRPRPGWSPRP | 0.135
53 | RRIRMRPPRLPRPRPRPDHFPRP | -0.0876
54 | RRIRGRPPRLPRPRPRPHAYPRP | 2.11
55 | RRIRDRPPRLPRPRPRPYAHPRP | -0.31
56 | RRIRGRPPRLPRPRPRPYTRPRP | -0.0484
57 | RRIRERPPRLPRPRPRPENGPRP | -0.025
58 | RRIRGRPPRLPRPRPRPHDTPRP | 0.358
59 | RRIRGRPPRLPRPRPRPQNFPRP | 0.136
60 | RRIRYRPPRLPRPRPRPFKGPRP | 0.00253
61 | RRIRDRPPRLPRPRPRPRMWPRP | 0.0802
62 | RRIRIRPPRLPRPRPRPAAPPRP | 0.47
63 | RRIRSRPPRLPRPRPRPETCPRP | 0.152
64 | RRIRKRPPRLPRPRPRPMMFPRP | -0.0431
65 | RRIRVRPPRLPRPRPRPNKYPRP | -0.668
66 | RRIRIRPPRLPRPRPRPDHSPRP | -0.152

Row | Sequence | shrunken log2 fold change
67 | RRIRMRPPRLPRPRPRPTSTPRP | 0.16
68 | RRIRSRPPRLPRPRPRPEFPPRP | 0.123
69 | RRIRRRPPRLPRPRPRPQPQPRP | 0.354
70 | RRIRKRPPRLPRPRPRPLWLPRP | 0.377
71 | RRIRKRPPRLPRPRPRPSFSPRP | -0.0191
72 | RRIRVRPPRLPRPRPRPYAWPRP | 0.0346
73 | RRIRGRPPRLPRPRPRPYLSPRP | -0.0512
74 | RRIRQRPPRLPRPRPRPIMSPRP | 0.0933
75 | RRIRSRPPRLPRPRPRPWSSPRP | 0.0531
76 | RRIRNRPPRLPRPRPRPIDIPRP | -0.947
77 | RRIRGRPPRLPRPRPRPTAEPRP | 3.04
78 | RRIRMRPPRLPRPRPRPAKNPRP | 0.816
79 | RRIRVRPPRLPRPRPRPSVQPRP | -0.0929
80 | RRIRPRPPRLPRPRPRPRGGPRP | 0.605
81 | RRIRMRPPRLPRPRPRPSNIPRP | -0.227
82 | RRIRERPPRLPRPRPRPHDEPRP | 0.00178
83 | RRIRYRPPRLPRPRPRPECAPRP | -0.126
84 | RRIRFRPPRLPRPRPRPLVEPRP | -0.0559
85 | RRIRMRPPRLPRPRPRPPHDPRP | 1.47
86 | RRIRKRPPRLPRPRPRPVEMPRP | 0.126
87 | RRIRHRPPRLPRPRPRPCSFPRP | -0.309
88 | RRIRYRPPRLPRPRPRPDFVPRP | -0.205

Row | Sequence | shrunken log2 fold change
89 | RRIRWRPPRLPRPRPRPWNEPRP | 0.0237
90 | RRIRMRPPRLPRPRPRPMLHPRP | 0.0756
91 | RRIRWRPPRLPRPRPRPGYPPRP | -0.251
92 | RRIRARPPRLPRPRPRPWRVPRP | 0.12
93 | RRIRDRPPRLPRPRPRPGDTPRP | -0.11
94 | RRIRARPPRLPRPRPRPFKLPRP | -0.39
95 | RRIRIRPPRLPRPRPRPLKPPRP | -0.296
96 | RRIRLRPPRLPRPRPRPEGRPRP | 1.11
97 | RRIRLRPPRLPRPRPRPFLSPRP | -0.643
98 | RRIRQRPPRLPRPRPRPANKPRP | -0.397
99 | RRIRARPPRLPRPRPRPWVNPRP | -0.246
100 | RRIRNRPPRLPRPRPRPWAVPRP | 0.0374
101 | RRIRKRPPRLPRPRPRPHVAPRP | 0.0884
102 | RRIRHRPPRLPRPRPRPMKHPRP | -0.0367
103 | RRIRVRPPRLPRPRPRPGLLPRP | -0.146
104 | RRIRSRPPRLPRPRPRPDFMPRP | -0.159
105 | RRIRQRPPRLPRPRPRPSVPPRP | -0.0859
106 | RRIRCRPPRLPRPRPRPEVPPRP | -0.119
107 | RRIRRRPPRLPRPRPRPEVHPRP | 0.648
108 | RRIRQRPPRLPRPRPRPKLAPRP | -0.0518
109 | RRIRVRPPRLPRPRPRPNQNPRP | -0.312
